Measured values published in publication PMC11417404, “The molecular mechanism for TERRA recruitment and annealing to telomeres”.

Target: RAD51 (UniProt Q06609 1-339)
Test: EMSA; 1 mM Mg2+, 1 mM ATP; highest affinity, unbound band gone at lowest RAD51 (1.5 uM); RAD51 EMSA: 50 mM Tris-HCl pH 7.5, 50 mM KCl, 1 mM MgCl2, 1 mM ATP, 37 C 10 min; 0.8% TBE agarose + 10 mM KCl at 4 C. Single molecule: T50 (10 mM Tris-HCl pH 7.5, 50 mM NaCl); imaging 10 mM Tris-HCl pH 7.5, 100 mM NaCl, 10% glycerol. Supplementary Table 2 kd values are for TERRA/DNA annealing to (protein-bound) duplex, not …
Details: protein: recombinant; label: Cy3; G4, single strand

Sequence of RAD51 (Q06609 whole entry): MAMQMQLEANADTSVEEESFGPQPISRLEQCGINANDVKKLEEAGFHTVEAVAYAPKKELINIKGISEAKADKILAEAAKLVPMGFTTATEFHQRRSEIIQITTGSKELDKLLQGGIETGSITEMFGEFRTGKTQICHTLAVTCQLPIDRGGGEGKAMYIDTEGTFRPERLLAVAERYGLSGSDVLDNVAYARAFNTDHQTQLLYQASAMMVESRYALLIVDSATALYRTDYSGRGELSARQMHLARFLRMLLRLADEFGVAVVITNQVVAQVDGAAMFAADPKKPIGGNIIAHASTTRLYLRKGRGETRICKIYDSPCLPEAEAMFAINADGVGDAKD

UGGCGACGGCAGCGAGGCUUAGGGUUAGGGUUAGGGUUAGGG (structured_RNA) [TERRA-18]: binds.
